# Data from paper PMC3750045, “Human RNase H1 Is Associated with Protein P32 and Is Involved in Mitochondrial Pre-rRNA Processing” (PLoS ONE, 2013).
# T1: His-RNase H1 (Homo sapiens, UniProt O60930 1-286)
# T1 sequence: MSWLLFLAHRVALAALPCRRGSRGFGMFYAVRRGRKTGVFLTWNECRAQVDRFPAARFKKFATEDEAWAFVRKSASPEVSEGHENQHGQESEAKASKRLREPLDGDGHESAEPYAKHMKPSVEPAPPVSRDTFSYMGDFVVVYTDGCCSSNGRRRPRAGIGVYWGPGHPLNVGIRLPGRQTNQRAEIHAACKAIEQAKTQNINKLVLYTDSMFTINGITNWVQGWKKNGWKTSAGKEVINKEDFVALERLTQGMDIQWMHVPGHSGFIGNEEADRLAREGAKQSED
# B1: N-terminal His-tagged human RNase H1 (recombinant) (enzyme, UniProt O60930 1-286, looked up)
# chain: MSWLLFLAHRVALAALPCRRGSRGFGMFYAVRRGRKTGVFLTWNECRAQVDRFPAARFKKFATEDEAWAFVRKSASPEVSEGHENQHGQESEAKASKRLREPLDGDGHESAEPYAKHMKPSVEPAPPVSRDTFSYMGDFVVVYTDGCCSSNGRRRPRAGIGVYWGPGHPLNVGIRLPGRQTNQRAEIHAACKAIEQAKTQNINKLVLYTDSMFTINGITNWVQGWKKNGWKTSAGKEVINKEDFVALERLTQGMDIQWMHVPGHSGFIGNEEADRLAREGAKQSED
# notes: human RNase H1, 286 residues (domains printed as aa1-72, aa73-135, aa136-286), in the pET 3C vector; also called His-H1; His-tag RNase H1; source: E. coli BL21 (DE3), lysed in 6 M guanidine, purified (Ni-NTA agarose)
# B2: GST-P32 fusion protein (natural protein, human, UniProt Q07021 74-282, looked up)
# chain: LHTDGDKAFVDFLSDEIKEERKIQKHKTLPKMSGGWELELNGTEAKLVRKVAGEKITVTFNINNSIPPTFDGEEEPSQGQKVEEQEPELTSTPNFVVEVIKNDDGKKALVLDCHYPEDEVGQEDEAESDIFSIREVSFQSTGESEWKDTNYTLNTDSLDWALYDHLMDFLADRGVDNTFADELVELSTALEHQEYITFLEDLKSFVKSQ
# Columns and labels:
# GST-P32 fusion protein = target: B2; test: pull-down; fixed amount of GST-P32 on GST beads, increasing amounts of RNase H1 (0.025–2.0 µg/400 µl), room temperature 15–20 minutes; glutathione elution; bound RNase H1 and P32 quantified by Western blot against known amounts; conditions: both partners purified
# His-RNase H1 = target: T1, His-RNase H1; test: EMSA; 2 mM Mg2+, 4 C; EMSA: 20 mM Tris pH 7.0, 20 mM NaCl, 2 mM MgCl2, 5% glycerol, 30 min at 4 C; cleavage buffer (described for IP activity assays; competition conditions by reference): 20 mM Tris pH 7.5, 50 mM NaCl, 2 mM MgCl2, 5 mM 2-mercaptoethanol, 37 C; conditions: protein: recombinant; tags: N-terminal His; label: 32P (5' end)
# [1] = target: B1; test: cell-based or functional assay
binder,measurement,setting,value
B1,stoichiometry N,GST-P32 fusion protein,~1.43 molecules of RNase H1 to 1 molecule of P32
"Duplex B, non-cleavable Apo B 2'-fluoro RNA/DNA heteroduplex (XNA, strand 1 uniformly 2'-fluoro RNA; strand 2 DNA) RNA: GGAUGGUAGCACAAGUGACA DNA: TGTCCTTGTGCTACCATCC",binding result,His-RNase H1,binds
B2,"increase in Km of RNase H1 for the RNA/DNA duplex with GST-P32 at H1:P32 ratios of 1:1 and 1:5, against RNase H1 with GST control",[1],~5 fold
same,"increase in kcat of RNase H1 cleavage of the RNA/DNA duplex with GST-P32, against control RNase H1",[1],~2 fold
